Results on two molecules are retold here after US20240327475A1 (UNIVERSITY OF MARYLAND COLLEGE PARK, published 2024).

First the molecules themselves.
B2: ICAM-1 on human cells (HUVEC; human brain endothelial cells and astrocytes of the BBB model; iPS-derived neurons from a Gaucher patient) (receptor, UniProt P05362 28-532, looked up)
chain: QTSVSPSKVILPRGGSVLVTCSTSCDQPKLLGIETPLPKKELLLPGNNRKVYELSNVQEDSQPMCYSNCPDGQSTAKTFLTVYWTPERVELAPLPSWQPVGKNLTLRCQVEGGAPRANLTVVLLRGEKELKREPAVGEPAEVTTTVLVRRDHHGANFSCRTELDLRPQGLELFENTSAPYQLQTFVLPATPPQLVSPRVLEVDTQGTVVCSLDGLFPVSEAQVHLALGDQRLNPTVTYGNDSFSAKASVSVTAEDEGTQRLTCAVILGNQSQETLQTVTIYSFPAPNVILTKPEVSEGTEVTVKCEAHPRAKVTLNGVPAQPLGPRAQLLLKATPEDNGRSFSCSATLEVAGQLIHKNQTRELRVLYGPRLDERDCPGNWTWPENSQQTPMCQAWGNPLPELKCLKDGTFPLPIGESVTVTRDLEGTYLCRARSTQGEVTRKVTVNVLSPRYEIVIITVVAAAVIMGTAGLSTYLYNRQRKIKKYRLQQAQKGTPMKPNTQATPP
notes: whole, on cells; also called ICAM receptor; intercellular adhesion molecule-1

For assay [1], the target named is B2. The assay can be described thus: cell-based or functional assay.
The target of assay [2] is T1, control non-targeted ASM (Olipudase); full recombinant ASM produced by He et al. (1999), which served as … (human, UniProt P17405 62-631).
T1 construct: also called control ASM
T1 sequence (looked up): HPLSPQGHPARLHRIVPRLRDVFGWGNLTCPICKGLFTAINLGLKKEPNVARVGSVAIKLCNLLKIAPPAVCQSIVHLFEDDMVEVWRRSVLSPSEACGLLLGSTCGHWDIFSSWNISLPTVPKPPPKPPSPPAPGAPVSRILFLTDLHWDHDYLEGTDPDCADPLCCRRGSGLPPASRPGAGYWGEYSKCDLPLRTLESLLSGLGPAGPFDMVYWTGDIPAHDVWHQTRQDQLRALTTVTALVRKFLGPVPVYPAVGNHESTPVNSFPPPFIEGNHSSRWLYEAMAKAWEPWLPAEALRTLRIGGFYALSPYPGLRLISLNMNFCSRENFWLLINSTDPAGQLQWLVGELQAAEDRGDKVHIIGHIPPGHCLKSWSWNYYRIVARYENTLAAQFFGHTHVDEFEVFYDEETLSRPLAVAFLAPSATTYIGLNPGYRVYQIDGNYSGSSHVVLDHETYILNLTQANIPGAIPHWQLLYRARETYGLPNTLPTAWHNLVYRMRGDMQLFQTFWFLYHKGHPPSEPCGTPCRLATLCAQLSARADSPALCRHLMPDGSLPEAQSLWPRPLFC
Nature of the assay: Incubation with HUVEC cells (known to express ICAM-1) for 3 h at 37° C., then fixation, permeabilization and anti-ASM + FITC-secondary antibody staining (cell association and uptake).

B1: targeted fusion GCase protein J in Example 1 (human GCase with five tandem-repeats of the 2γ3 ICAM-1-targeting peptide at the amino terminus), after … (enzyme)
chain: NNQKIVNIKEKVAQIEAGGGGSGGGGSNNQKIVNIKEKVAQIEAGGGGSGGGGSNNQKIVNIKEKVAQIEAGGGGSGGGGSNNQKIVNIKEKVAQIEAGGGGSGGGGSNNQKIVNIKEKVAQIEAGGGGSGGGGSGFLGARPCIPKSFGYSSVVCVCNATYCDSFDPPTFPALGTFSRYESTRSGRRMELSMGPIQANHTGTGLLLTLQPEQKFQKVKGFGGAMTDAAALNILALSPPAQNLLLKSYFSEEGIGYNIIRVPMASCDFSIRTYTYADTPDDFQLHNFSLPEEDTKLKIPLIHRALQLAQRPVSLLASPWTSPTWLKTNGAVNGKGSLKGQPGDIYHQTWARYFVKFLDAYAEHKLQFWAVTAENEPSAGLLSGYPFQCLGFTPEHQRDFIARDLGPTLANSTHHNVRLLMLDDQRLLLPHWAKVVLTDPEAAKYVHGIAVHWYLDFLAPAKATLGETHRLFPNTMLFASEACVGSKFWEQSVRLGSWDRGMQYSHSIITNLLYHVVGWTDWNLALNPEGGPNWVRNFVDSPIIVDITKDTFYKQPMFYHLGHFSKFIPEGSQRVGLVASQKNDLDAVALMHPDGSAVVVVLNRSSKDVPLTIKDPAVGFLETISPGYSIHTYLWRRQ
modifications: pre-labeled with 125Iodine
On to B1, for which the “association to iPS-derived neurons from a Gaucher patient, fold over control non-targeted enzyme” value in assay [1] is approximately 3 fold.

As to B2, the binding result in assay [2] is “no binding”.
